From patent US20250339501A1, “COMPOSITIONS AND METHODS FOR TREATING METABOLIC DISEASE” (The Regents of the University of California, priority 2021, published 2025) come the findings set out here.

In experiment [1] the test system is HepG2 cells. As to the kind of experiment: Reactive oxygen species in HepG2 cells. Format: cell-based, human. The note with it: baseline and TNFα-induced. The text has this: A wide variety of mechanisms activate the JNK pathway. […] Moreover, ASK1 is activated by various stresses, including oxidative stress, ER stress, calcium overload, and receptor-mediated inflammatory signals such as TNFα and lipopolysaccharide (LPS) (26,27). rDj1 administration suppressed both baseline and TNFα-induced ROS levels in HepG2 cells, which may contribute to reducing liver inflammation (FIG. 6F).

Experiment [2] concerns ACC. Briefly: ACC phosphorylation immunoblot in HepG2 cells. The class given is cell-based, human. The procedure:
(§1) Mouse myoblast cells (C2C12) were maintained in high glucose DMEM/high, 10% fetal bovine serum with penicillin/streptomycin. pRK5-Dj1-HA plasmid was purchased from Addgene (#29396). Seeded cells were cultured in 6-well plates for 24 hours prior to transfection. Transfections were performed using Lipofectamine 2000 and PLUS reagent according to manufacturer instructions (Invitrogen, Carlsbad, CA). Human HepG2 cells were cultured in DMEM/low media containing 10% fetal bovine serum with penicillin/streptomycin. Mouse AML12 cells were maintained in DMEM/F12, ITS supplement (Gibco, USA), 40 ng/ml dexamethasone, and 10% fetal bovine serum with penicillin/streptomycin. For in vitro experiments, HepG2 cells were treated with or without recombinant human Dj1 protein (Novus, NBC1-18334) in serum-free media containing 25 mM glucose, 200 μM palmitic acid, and 0.25% bovine serum albumin for an indicated time.
(In general: Immunoblotting shows a protein as a band on a membrane.)

Experiment [3] deals with JNK. Briefly: JNK phosphorylation immunoblot in liver of HFD-fed mice. Format: in vivo, mouse. An excerpt: As described above, Dj1 administration stimulates AMPK phosphorylation in the liver cells. However, elevated AMPK phosphorylation in vivo was not observed (data not shown). Numerous studies have reported that the c-Jun N terminal kinase (JNK) is critical to the development of steatosis and chronic liver injury in NAFLD (22-25). […] However, not all MAPK pathways were activated. For example, phosphorylation of p42 was not altered by tDj1 treatment (FIG. 6O). Both rDj1 and tDj1 suppressed TNFα and Anisomycin-induced JNK (p54 and p46) phosphorylation in human HepG2 and mouse AML12 liver cells, respectively (FIGS. 6C-6D).

Experiment [4] has as its system mitochondrial complex II. Briefly: Complex II activity of isolated liver mitochondria from treated HFD-fed mice. The class given is in vivo, mouse.
For experiment [5], the system named is AMPK signaling. Briefly: RNA sequencing analysis of HepG2 cells. The class given is cell-based, human.
For experiment [6], the system named is AMPK. As to the kind of experiment: AMPK phosphorylation immunoblot in HepG2 cells. The class given is cell-based, human. The procedure:
as §1

Experiment [7] concerns mitochondrial complex I. Briefly: Complex I activity of isolated liver mitochondria from treated HFD-fed mice. Format: in vivo, mouse.
In experiment [8] the test system is NC-fed C57BL/6J mice. As to the kind of experiment: rDj1 tail-vein injection daily for 5 days in NC-fed mice. The class given is in vivo, mouse. The note with it: 0.15 mg/kg/day IV for 5 days. The procedure: C57BL/10cSn-Dmd^mdx/J (001801, mdx) and C57BL/10ScSnJ (000476, WT) mice were ordered directly from The Jackson Laboratory. Different ages of mdx and WT mice were obtained. Animals were weaned 21 days after birth and had free access to food and water and were housed on 12 h light-dark cycle. C57BL/6J males were introduced to a normal diet (NC, Research Diets D15100601) or high-fat diet (HFD, Research Diets D12331), and maintained on a diet for the indicated time. The HFD diet derives 58% of its kilocalories (kcal) from fat (soybean and coconut oil), 25.5% from carbohydrates (sucrose and maltodextrin), and 16.4% from protein (casein). NASH model mice were fed for up to 28 weeks with the NASH diet (Envigo, TD.120528) and 42% fructose (Sigma, F0127) in the water (1,2). The NASH diet is composed of 405.36 g/Kg sucrose and 12.5 g/Kg cholesterol. Recombinant mouse Dj1 protein (Novus, NBP2-59523) or truncated mouse Dj1 (tDj1, GenScript) protein was intravenously injected every day for 5 days or every other day for 2 weeks. Skeletal muscle-specific Park7 knockout mice were generated by crossing Park7 flox mice with Myl1-cre mice (JAX, #024713). Mice were raised in microisolator cages with a 12 h: 12 h light: dark cycle. […]
Plasma and liver NEFA, Cholesterol, and Triglyceride were analyzed by their respective kits (FUJIFILM Wako Diagnostics) […]

The subject of experiment [9] is HFD-fed mice. Briefly: rDj1 or tDj1 intravenous every other day for 14 days in HFD-fed mice. Format: in vivo, mouse. The procedure: C57BL/10cSn-Dmd^mdx/J (001801, mdx) and C57BL/10ScSnJ (000476, WT) mice were ordered directly from The Jackson Laboratory. Different ages of mdx and WT mice were obtained. Animals were weaned 21 days after birth and had free access to food and water and were housed on 12 h light-dark cycle. C57BL/6J males were introduced to a normal diet (NC, Research Diets D15100601) or high-fat diet (HFD, Research Diets D12331), and maintained on a diet for the indicated time. The HFD diet derives 58% of its kilocalories (kcal) from fat (soybean and coconut oil), 25.5% from carbohydrates (sucrose and maltodextrin), and 16.4% from protein (casein). NASH model mice were fed for up to 28 weeks with the NASH diet (Envigo, TD.120528) and 42% fructose (Sigma, F0127) in the water (1,2). The NASH diet is composed of 405.36 g/Kg sucrose and 12.5 g/Kg cholesterol. Recombinant mouse Dj1 protein (Novus, NBP2-59523) or truncated mouse Dj1 (tDj1, GenScript) protein was intravenously injected every day for 5 days or every other day for 2 weeks. Skeletal muscle-specific Park7 knockout mice were generated by crossing Park7 flox mice with Myl1-cre mice (JAX, #024713). Mice were raised in microisolator cages with a 12 h: 12 h light: dark cycle. All procedures were performed in accordance with the Guide for Care and Use of Laboratory Animals of the National Institutes of Health, and were approved by the Animal Subjects Committee of the University of California, Los Angeles.
Cryosections (10-μm thick transverse sections of frozen muscle cut in a cryostat (Leica) at −20° C.) were subjected to hematoxylin & eosin (H&E) staining (10, 54). Liver tissues were fixed in phosphate-buffered 10% formalin and embedded in paraffin wax. Sections were cut and stained with H&E.
Mouse serum Dj1 and CK were measured by mouse Park7/DJ-1 DuoSet ELISA (DY8136, R&D systems) and mouse CKMB/Creatine Kinase MB ELISA Kit (LS-F5745, LSBio) respectively. Mouse Serum AST and ALT were measured by AST activity assay kit (Sigma, MAK055) and ALT activity assay kit (Sigma, MAK052) respectively.
Plasma and liver NEFA, Cholesterol, and Triglyceride were analyzed by their respective kits (FUJIFILM Wako Diagnostics)
About 80 mg of liver samples were homogenized and sonicated in PBS (pH 7.4) for lipid extraction. An internal standard mixture (ISTD) and CHCl3:methanol (2:1) were added to the samples before being vortexed, mixed, sonicated, and centrifuged. The supernatant containing the lipid was removed and dried, the lipids were resuspended in ethanol and then sonicated.
Dj1 is a highly conserved protein that is ubiquitously expressed in most mammalian tissues. It belongs to the Dj1/ThiJ/PfpI family chaperones, and its expression is induced by oxidative stress (20,21). To determine whether the PfpI domain of Dj1 exerts a similar role as the full-length Dj1 protein (rDj1) in liver cells, truncated Dj1 (tDj1) comprising of only the PfpI domain was purified (FIG. 5O). HFD-fed mice were intravenous injected with rDj1 or tDj1 every other day for 14 days.

Experiment [10] relates to HepG2 cells. As to the kind of experiment: OCR/ECAR and mitochondrial ATP production in HepG2 cells. The class given is cell-based, human. As to the method: as §1

B1: rDj1: full-length recombinant Dj1 protein; mouse protein (Novus, NBP2-59523) injected in mice, human protein used in HepG2 cells (protein, UniProt Q99LX0 1-189, looked up)
chain: MASKRALVILAKGAEEMETVIPVDVMRRAGIKVTVAGLAGKDPVQCSRDVMICPDTSLEDAKTQGPYDVVVLPGGNLGAQNLSESPMVKEILKEQESRKGLIAAICAGPTALLAHEVGFGCKVTTHPLAKDKMMNGSHYSYSESRVEKDGLILTSRGPGTSFEFALAIVEALVGKDMANQVKAPLVLKD
modifications: full-length
notes: full-length recombinant Dj1 protein; mouse protein (Novus, NBP2-59523) injected in mice, human protein used in HepG2 cells
Take B1: the ROS levels entry in experiment [1] was “suppressed”. The “phosphorylation of ACC” value in experiment [2] was “elevated”. Besides, in experiment [3], the “JNK (p46 subunit) phosphorylation” value is “significantly reduced”. Besides, the “mitochondrial complex II activity” value in [4] is given as “Enhanced”. Also, the “AMPK signaling (RNA sequencing analysis)” value in experiment [5] is recorded as “upregulated”. Also, in [6], the “phosphorylation of AMPK” value is recorded as “elevated”. Also, in experiment [7], the “mitochondrial complex I activity” value is listed as “Enhanced”. In [8], the plasma cholesterol levels result is “significantly reduced” and the “plasma non-esterified fatty acids (NEFA)” value was “significantly reduced”. In addition, in [9], the “level of TG in the liver” value was “significantly reduced”; the “liver histology, lipid accumulation” value is on record as “less lipid accumulation”; the “plasma ALT levels” value is “reducing”; the “plasma AST levels” value is given as “reducing”. Also, in [10], the “mitochondrial ATP production rate” value was “enhanced” and the “oxygen consumption rate/extracellular acidification rate (OCR/ECAR)” value is “enhanced”.
